Test [1] concerns the target T1, hCD200R1-iso4-Ref ECD (Homo sapiens, UniProt Q8TD46).
In test [2] the target is T2, recombinant MfCD200R1 ECD (Macaca fascicularis, UniProt G7NZT0). Nature of the test: SPR.
The target of test [3] is T2, recombinant MfCD200R1 ECD. The test is described as follows: SPR. This is another data set of the same source. A general note: SPR reads the build-up and loss of mass on a sensor chip optically.
Test [4] has as its target WT hCD200R1-iso4-Ref expressed on Expi293 cells (Homo sapiens, UniProt Q8TD46, strain). Nature of the test: flow cytometry on cells. For orientation: Flow cytometry measures light scatter and fluorescence of single cells or particles in a stream.
Test [5] has as its target T1, hCD200R1-iso4-Ref ECD. The test is described as follows: SPR.

Where a chain is given by its changes, count along the chain named. Read-outs that look alike come from different tables or passages of the source.

T1 sequence (Q8TD46 29-265): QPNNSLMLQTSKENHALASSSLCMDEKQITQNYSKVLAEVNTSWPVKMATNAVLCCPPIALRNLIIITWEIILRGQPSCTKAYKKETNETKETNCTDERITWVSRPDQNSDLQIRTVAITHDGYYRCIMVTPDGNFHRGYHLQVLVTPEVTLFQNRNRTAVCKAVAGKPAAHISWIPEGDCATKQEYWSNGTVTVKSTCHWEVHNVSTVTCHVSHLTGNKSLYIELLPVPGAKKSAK
WT hCD200R1-iso4-Ref expressed on Expi293 cells, sequence (Q8TD46 whole entry, looked up, change not shown, the tested form may be a part): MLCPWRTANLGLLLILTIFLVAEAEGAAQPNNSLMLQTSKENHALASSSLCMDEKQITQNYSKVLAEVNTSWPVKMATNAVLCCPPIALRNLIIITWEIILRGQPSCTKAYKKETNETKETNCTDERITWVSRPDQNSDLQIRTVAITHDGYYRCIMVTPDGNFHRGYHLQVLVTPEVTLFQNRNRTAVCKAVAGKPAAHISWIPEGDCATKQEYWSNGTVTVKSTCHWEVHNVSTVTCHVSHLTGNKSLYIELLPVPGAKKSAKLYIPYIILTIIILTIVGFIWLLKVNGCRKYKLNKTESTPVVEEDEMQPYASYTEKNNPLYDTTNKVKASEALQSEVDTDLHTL

B1: 23ME-00611 (antibody, V domains shown)
VH: EVQLQESGPGLVKPSETLSLTCTVSGFSLTNYRVSWVRQPPGKGLEWLGVMYAGGGTNYNSVFKSRLTISKDNSKNQVSLKLSSVTAADTAVYYCARERPLTGVMDNWGQGTLVTVSS
VL: DIVLTQSPDSLAVSLGERATINCRASESVDYSGNSFMHWFQQKPGQPPKLLIYRASNLESGIPDRFSGSGSRTDFTLTISSLQAEDVAVYYCHQSNWDPPTFGGGTKVEIK
Take B1: the Kd with hCD200R1-iso4-Ref ECD [1] was 1 nM; in test [2], 2 nM.

B2: 23ME-00610_E93W (antibody, V domains shown)
VH: B1 VH with R33A, Y52W, N107Y
VL: B1 VL
For the molecule B2, the binding result in test [3] is reported as “binds”.

B3: 23ME-00610_A33R (antibody, V domains shown)
VH: B1 VH with Y52W, N107Y
VL: B1 VL with W97E
On to B3, for which, in test [3], the binding result is given as “binds”.

B4: 23ME-00610 (antibody, V domains shown)
VH: B1 VH with R33A, Y52W, N107Y
VL: B1 VL with W97E
With B4, the values for the binding result in test [4] and in test [2] were “binds” and “no binding (tested: up to 200 nM)”, respectively. Moreover, the dissociation constant (Kd) with hCD200R1-iso4-Ref ECD [5] was determined as 0.1 nM.

By Kd is commonly meant the concentration at which binding is half-saturated.

The values are drawn from article PMC11485749 (mAbs, 2024).
